Assay results taken from publication PMC10925418, “Survivin Mediates Mitotic Onset in HeLa Cells Through Activation of the Cdk1-Cdc25B Axis” (Research Square, 2024).
Where no end group is shown, it is not given here.

B1: His-Cdk1 1–85 (domain or fragment)
chain: not shown
notes: Cdk1, human, residues 1-85, deletion mutant made by PCR; source: E. coli BL21, purified (Ni2+-charged agarose); not shown: His-tag, N-terminal, kept
B2: His-Cdk1 36–85 (domain or fragment)
chain: not shown
notes: Cdk1, human, residues 36-85, deletion mutant made by PCR; source: E. coli BL21, purified (Ni2+-charged agarose); not shown: His-tag, N-terminal, kept
B3: GST-Survivin 1-70 (domain or fragment, UniProt O15392 1-70, looked up)
chain: MGAPTLPPAWQPFLKDHRISTFKNWPFLEGCACTPERMAEAGFIHCPTENEPDLAQCFFCFKELEGWEPD
notes: Survivin residues 1-70, deletion mutant made by PCR; also called Survivin N-terminus (first 70 amino acids); source: E. coli BL21, purified (glutathione agarose); not shown: GST, N-terminal, kept
B4: SUR A55-D70 peptide (peptide)
peptide: AQCFFCFKELEGWEPD
modifications: not fully specified (N-terminus); cysteine pairing not given here
notes: Survivin residues Ala55 through Asp70; the methods describe only one form of the peptide (biotin and tat at the N-terminus); also called Survivin peptide; Survivin A55-D70; source: synthetic peptide (f-BOC chemistry, HPLC purified; Peptron or W. M. Keck Biotechnology Research Center, Yale)

Legend:
Conditions in all cases: both partners purified
GST-Survivin = molecular target: T1, GST-Survivin (UniProt O15392 1-142); assay: pull-down; GST pull-down: His-tagged recombinant proteins mixed with GST, GST-Survivin or GST-Survivin mutants; Western blotting
T1 construct: Survivin; the printed peptide 55-70 fits human Survivin; also called recombinant Survivin; pGST-Survivin product; source: E. coli BL21, purified (glutathione agarose); not shown: GST, N-terminal, kept

SUR A55-D70 peptide = molecular target: B4; assay: pull-down; streptavidin-binding assay: 50 ug biotinylated peptide bound to streptavidin agarose, mixed with recombinant His-Cdk1 fragments; Western blotting
His-Cdk1 = molecular target: T2, His-Cdk1 (human, UniProt P06493 1-297); assay: pull-down; GST pull-down: His-tagged recombinant proteins mixed with GST, GST-Survivin or GST-Survivin mutants; Western blotting
T2 construct: Cdk1, human, full-length cDNA BC014563 subcloned into pRSETa; also called recombinant His-Cdk1; Cdk1 protein kinase; source: E. coli BL21, purified (Ni2+-charged agarose); not shown: His-tag, N-terminal, kept
T2 sequence (P06493 whole entry): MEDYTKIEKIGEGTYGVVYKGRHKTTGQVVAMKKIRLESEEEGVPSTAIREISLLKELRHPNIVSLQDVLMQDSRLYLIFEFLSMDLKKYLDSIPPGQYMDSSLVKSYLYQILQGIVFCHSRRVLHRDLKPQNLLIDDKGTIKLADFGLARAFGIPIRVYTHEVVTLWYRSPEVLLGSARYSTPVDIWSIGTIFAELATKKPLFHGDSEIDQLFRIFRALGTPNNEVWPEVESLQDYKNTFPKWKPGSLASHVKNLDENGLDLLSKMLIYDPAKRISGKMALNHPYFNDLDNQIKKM

His-Cdk1 1–183 = molecular target: T3, His-Cdk1 1–183 (human, UniProt P06493 1-183); assay: pull-down; streptavidin-binding assay: 50 ug biotinylated peptide bound to streptavidin agarose, mixed with recombinant His-Cdk1 fragments; Western blotting
T3 construct: source: E. coli BL21, purified (Ni2+-charged agarose); not shown: His-tag, N-terminal, kept
T3 sequence (P06493 1-183): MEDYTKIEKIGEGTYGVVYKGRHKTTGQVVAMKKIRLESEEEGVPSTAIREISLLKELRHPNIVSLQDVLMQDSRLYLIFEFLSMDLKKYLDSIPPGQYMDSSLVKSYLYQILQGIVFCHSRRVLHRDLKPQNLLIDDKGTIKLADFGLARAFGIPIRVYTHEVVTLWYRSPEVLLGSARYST

His-Cdk1 1–85 = molecular target: B1; assay: as above
Sequence of His-Cdk1 1–85 (P06493 1-85): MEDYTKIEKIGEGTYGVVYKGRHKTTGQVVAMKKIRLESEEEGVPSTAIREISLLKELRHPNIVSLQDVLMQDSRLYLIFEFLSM

His-Cdk1 9–85 = molecular target: T4, His-Cdk1 9–85 (human, UniProt P06493 9-85); assay: as above
T4 construct: Cdk1, human, residues 9-85, deletion mutant made by PCR; source: E. coli BL21, purified (Ni2+-charged agarose); not shown: His-tag, N-terminal, kept
T4 sequence (P06493 9-85): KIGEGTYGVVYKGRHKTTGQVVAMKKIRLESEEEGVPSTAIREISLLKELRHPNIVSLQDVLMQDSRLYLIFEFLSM

## B1
GST-Survivin
  binding result: binds

## B2
SUR A55-D70 peptide
  binding result: binds

## B3
His-Cdk1
  binding result: binds

## B4
His-Cdk1 1–183
  binding result: binds
His-Cdk1 1–85
  binding result: binds
His-Cdk1 9–85
  binding result: binds
